# Experiment: soluble on expression in E. coli; label from the status in PepcDB or PDB records
row,Sequence,soluble on expression in E. coli
1,MMKPIIREAKPQDKPFIEEIAHLTWDGEDYLARVFDEWIKDGNFYVLELNGKVIGTVKLTLLPNRVSWMEGLRVHPNYHGRGFGKMLHNFIVEKGRMMASEGIIDALEFSPYFLNKKIIAMAEKNGFWVKARFFVASVRVGDFKPEEPIRIEPKLEDLTLGIIPVGWRFIKRSEEALEWIRKNAEVYEYNGLKFIGPKKETIFTPLEPGPAVLKALLPAMAWVAREKDKEEFNLMLSSSIKPVLSVFRRIGVYIWDDAKEPNVLVFRKKLKDKKGLIPFVNKWNYNKEY,not soluble
2,MMKYTAVLDKPVTGNETTGSLPEPLLREALGAALRAFRADKGITLRELAETSRVSPGYLSELERGRKEVSSELLASVCHALGTSVSDVLIEAAGTMAMRSAEADLVRVS,not soluble
3,MMLITERRSPFYPNIQNVPPSVIRKLVKNKAITLIDVRQPWEYEDHHIPGSILLPLDYFKELFPLVLSKNNLVKNGVAIICEHANRSTWLVYTEPSLFKEVKVYNMLGGIELWMIMGYEIEKGMDDNGTLWYKLLTKNLGLEHHHHHH,not soluble
4,MMLVTAHDMPIFAPTCNLMTISHQPLPSHLVRKSSSLHIAASTIHVKFIVRSHVIKMIAGIFLVCECHAKGGANSITASKQSPIIADLYDMKILIVFCLSYTNLIASKVKKQ,soluble
5,MMNSIKFIFLGDVYGKAGRNIIKNNLAQLKSKYQADLVIVNAENTTHGKGLSLKHYEFLKEAGVNYITMGNHTWFQKLDLAVVINKKDLVRPLNLDTSFAFHNLGQGSLVFEFNKAKIRITNLLGTSVPLPFKTTNPFKVLKELILKRDCDLHIVDFHAETTSEKNAFCMAFDGYVTTIFGTHTHVPSADLRITPKGSAYITDVGMCGPGFGSVIGANPEQSIRLFCAGSREHFEVSKCGAQLNGVFFEVDVNTKKVIKTEAIRIVEDDPRYLKQDYFNLI,soluble
6,MMRTVQLRTLRPCIRAQQQPVRPSTSATAAAATAPAPARKCPSSLFAKLGGREAVEAAVDKFYNKIVADPTVSTYFSNTDMKVQRSKQFAFLAYALGGASEWKGKDMRTAHKDLVPHLSDVHFQAVARHLSDTLTELGVPPEDITDAMAVVASTRTEVLNMPQQ,soluble
7,MMSACSDFLDREPLTTPNSETFLSNASAVNNYINGLYIALPSFGTYDMGVRGEEKNSDNIVAEVYDKRLNGELQENGGGTTEWQKGYQNLRNVNYFFEYYKVPETEETKDVLSMKGEAYFFRAYWHFYLLTRFGSIPVMDRFWDGNATVGGLQIPPRDRSAVAQFILDDLNTAKGLLHSRSQYKGLRVCKEAAIIMAMRVALYEGTWEKYHKGTDFAAAEDKSADLLGQVLTLGDELFGMGLALNTKATDKNAVNIEDAYAHIFNSKDLSDMTEVVFWKKYSIADGVIHNLSSNLGAGYVDNSGPAGLSQSLVDNYLNADGTPINPADGIFKDFNLTFKGRDGRLLATVMHSNCKFKSTSPESKSKAMLVEEYSEENKQIVRPPYLTEGGPARNATGYHIRMSIDTTYVSGQGETSLPVIRYAEALLAYAEAAEELGKCTPAVLEKTLKPLRERAGVTYKDPSEIDPNFTDFGYTISANLQEIRRERRAELALQGFRLDDLMRWRAHKLIQGKRGTGAYFGTDGVLYKAFDPKNAADLKTILTTDGWLDPQKELLPRGYQFDANRDYLLPVPPSEISLNHELKQNPGWQRK,not soluble
8,MMSQQFNVAIFGATGAVGETMLEVLQEREFPVDELFLLASERSEGKTYRFNGKTVRVQNVEEFDWSQVHIALFSAGGELSAKWAPIAAEAGVVVIDNTSHFRYDYDIPLVVPEVNPEAIAEFRNRNIIANPNCSTIQMLVALKPIYDAVGIERINVTTYQSVSGAGKAGIDELAGQTAKLLNGYPAETNTFSQQIAFNCIPQIDQFMDNGYTKEEMKMVWETQKIFNDPSIMVNPTCVRVPVFYGHAEAVHVETRAPIDAEQVMDMLEQTDGIELFRGADFPTQVRDAGGKDHVLVGRVRNDISHHSGINLWVVADNVRKGAATNAVQIAELLVRDYF,not soluble
9,MMSRVTCSHMSFQTAIRPAESVDIADIRRVARATWHTVYDDILGAETVEEHLKEGYTPPLLEQMIELDEVGLFVSTADDDVVAYMSCGMTDATGFGDLDLYVHPDYWGEGIGTELLHRGEQHLHDLSVRKIRDEVLAENEVGNAFYRAHFEKVGQRTAKVGGQEHPVNVYERRL,not soluble
10,MMTDEERIELQQNNPLHGLKLETLLQELVDFYGWEILDTAMRLNCFNTNPSVASSVKYLKKTEWAREKLENFYLYRFKRMPRASNLEYDKPPRARTFPHGLEPKEPMELTVDSILKSQAKAASAHKARTSNRGGNYRRLEHHHHHH,soluble
11,MNCESLLTALDVSTLLSTLSSPEKEHRRKRRRGEVANPSNTLDALVARKADDQPFEKRYLSEQEAIEGPDDEIEMKKMELDPDVSTRTCSTCGYQGKWVSEMIRHKRVHTSERPFKCRYCSRTSKWKADLIRHVAKTHGIRVVSKYSRSKVFDATNSSMDSSCSSDSDRCIISEKRTVFYRCQLCSFEDERVSVLNSHVSHLHNTSPCVCRCGAKFEDVQGALAHSNGPCSHVDMIYNVMPTYEKASPLSPCRSESSSDSGIQTDPEEEASIITSSLPTPQLGSSPLLLSPTLPVTPSFLPDIQSALLSLQPNPLMSLYLASLLQSSLLNSPTIPTSFPQIIPTTILTPSQQDEMVDVEM,not soluble
12,MNDALHIGLPPFLVQANNEPRVLAAPEARMGYVLELVRANIAADGGPFAAAVFERDSGLLIAAGTNRVVPGRCSAAHAEILALSLAQAKLDTHDLSADGLPACELVTSAEPCVMCFGAVIWSGVRSLVCAARSDDVEAIGFDEGPRPENWMGGLEARGITVTTGLLRDAACALLREYNACNGVIYNARCGVHK,soluble
13,MNDDKDVVIDQIYYISTDPSATTYPTTFSVSLVDNSVAGRPFFYVVGKSTMRVDRNTTLRVEEDSKLVEKYNETYGKKYLPFPEGTYSFSTNEVTINQGDNFSSDTIFISFSNWDKLSKIDKYLLPVSLKAVDDKGAVSMDRNLIYFIADFSTTNTGYNKPAAWKPLDRTDWDVSFSYAYGYDEAQFGGRLAVDGDVSTTWFTWGVVSAGECWWATTLPAPTHLTGFSLTRQTTFGSSYNVREAKVKVKKEGDTEWTEAGLFRFGSFKGNDPQYAVFIPAVENVKEFRIDIVSPADFTGFAELDLYQLEHHHHHH,not soluble
14,MNDEIKVSVLIITYNQARFIKKAIESALEQKTKFKYEIIVMDDCSSDSTIKIAGKYAEKYTDIIKVYSNNKNLGITKNYKEGFKKCRGEYIAVLEGDDYWNNKQKLQIQSNFLDRHKNFSAVFNRYIIYNAINNSKATQAWRSNTSYETITIEQLTRGNVIGNFSTCMYRKSCVDKVKESLYDMLVYDWMFNMVIAEQKPIAYLPQICSVYRIHSRGTWMGNSVKNRLALTIKLIDVYNAFFGFKYNSNFKLLKKNVYKQLINLEHHHHHH,soluble
15,MNDFYVTLPSSVKNAQFENTSSRYVTRLPQVLHLEKDEYSVAVTDIIYPYSFVNLGRPLNYWIHFKNREPINVTFPAAQYDDLPHVVNSLNGVQKPRMKRGAPLILENEQVKRPKSDEPLSERDVIINKIRELEAKAKKDEEERIAREKEEKNKQREKHLATHKKAEEFAKKVQTDKDEQREKHLDTHKKAEQNAQDNQKYHDEERKKHIETQKKAEENEEKRRAKEKADRDAHVARHKQAEALEKKKREQEEKQKNEDRERATQKERREHIERHRQAEARAKALEKEKHEQEEKQKKENLERAEKERHDHIERQRQAEARAKALEQEKQEEKQKNEDRERATQKERREHLERHRQAEARAKALEKEKHERLQQEAKDKEDERARDKARKDAKAREEAKSREDVKAEKVAIDPKQVVNIPGKVYASQEAKKIIEKVNELEKQERDKIVSKVRESEAIEKEAVRASSEYHDVALKIFQKPNDRNIYDELKLSFERIRSRIKVSHFENSSDYLQFGEKDGRVSIDFLDSNILFEEFEKSCAYFLGFHDTIVRESSLAPSKIDYFGNVSTIYLYCDIVDPIIVGDSKNSLLSVIPCKGKYGEMIHHTIPHPRYLPIMNSTIDSIKIELLSEFAEPINFNWGSTVIVLHFKKI,not soluble
16,MNDGYKQNDIVNHEAYEELEVAEEQIIYCQEEYNDGPGTMVQVQEQTDVPCYVMEGTYFTPENIYAANQDHSVCHFCKEDLTNKRFYNHLFDHHGFTKQQCEMMKQQKRLGRPNPKRKSLHSCENCGMEFITKTGLTSHLKKDNSPCARVDEMAVGGSSVSNIVCPSYGCDKNVPTYLDLAIHVDTEHRDLSRATDSFRIRRVTFQDKAGFMKWKKQMEKSTNSEFFLRTSQKVSFAIRTMLYKCLFSNSRGQSKGRRCEQCPAFIKCCMRNHGQYEVVACFGHLGHEHPTETEIARQMRIEKYREIDALQVRESRMHNQHHMNVRPKQIIVDQYGHPTHPNDEMMILMPVGEEVVEEDAFTSVVVDDADDEIVGPRAQQETPALTRQVYIPTSNHHASSSHY,not soluble
17,MNDQEFFTVHHALTINVEPLAEHFTLPSHEIFEAEIPAPFVVASEFSQLEQLSDSARMELKNSDFKSVLQLLEAQNAKLNLLLTFMLSQQDDPQSRSATTRFGASQLTYLAKSPLQIGQKVRVKLFLEYPAAAIYCYASVMQCQQEPEHTLVTLKYDLLRDVDQDLLIKAALYQQQRLLRQRSLDREKPQA,soluble
18,MNDSILEPKHRGNVREIAAIDLGSNSFHMIVARIVNGSIQVLSRLKQKVKLAEGLDENAVLNQEAITRGVNCLALFAERLQGFPMENVNVVGTYTLRRAVNNDEFLRQAAKVFPYPINIISGQTEAKTIYAGVCHTQPEKGRKLVIDIGGGSTEMIIGDDFTPLMAESRHMGCVSFATQFFTDGIISPENFQRARQSAVNKIEDLGLEYRKLGWQSVLGSSGTIKTVAQVIATNLDPNGTITAERLNALIEQTLQAKHFTELNINGLNQDRVDVFVPGLAILSAVFDVFHIQQMRYSDGALREGVIYSLEKNFQVADIRASTALEHHHHHH,not soluble
19,MNDVVLSCKNVSKKYTEFKTDIAILKDVNLEIKKGEKVAILGLSGSGKTTLLNVLGGLDKCSAGEVYLMGERFDNQSVNKRAKMRNKHLGFIYQLHHLLPEFTAIENVMIPLAITKKYTKKESIKLANEILKKVGLDHRADHKPAELSGGERQRVAIARALVTNPNCILADEPTGNLDSQRSESIFALMQQLSDDFGTSFVIVTHDEKLASRMNKIYRLVDGELELVINSN,not soluble
20,MNEFDRVRDYLTDLQDRICAAVEAIDGKARFAEDLWQRAEGGGGRTRILRDGAVFEQAGIGFSDVSGARLPPSASAHRPELAGATWRACGVSLVFHPHNPHIPTTHANVRYFRAERDGEMVAAWFGGGFDLTPFYPVDEDVMHWHRTAQALCAPFGEERYAAHKRWCDEYFFLRHRNETRGVGGLFFDDLGQDFERDFAYQRAVGDGFLDAYLPIVERRKDTPYGEAERAFQLYRRGRYVEFNLVYDRGTLFGLQSGGRAESILMSLPPQVRWEYGFQPQPGSAEARLADYLIPRDWLGLEHHHHHH,soluble

# — the DeepSol protein solubility set
